# Laboratory results taken from patent US20220288204A1, “DOSAGE AND ADMINISTRATION OF ANTI-ERBB3 (HER3) MONOCLONAL ANTIBODIES TO TREAT TUMORS ASSOCIATED WITH NEUREGULIN 1 (NRG1) GENE FUSIONS” (ELEVATION ONCOLOGY, INC., priority 2021, published 2022).
# B1: seribantumab (antibody, human IgG2, lambda, V domains shown)
# VH: EVQLLESGGGLVQPGGSLRLSCAASGFTFSHYVMAWVRQAPGKGLEWVSSISSSGGWTLYADSVKGRFTISRDNSKNTLYLQMNSLRAEDTAVYYCTRGLKMATIFDYWGQGTLVTVSS
# VL: QSALTQPASVSGSPGQSITISCTGTSSDVGSYNVVSWYQQHPGKAPKLIIYEVSQRPSGVSNRFSGSKSGNTASLTISGLQTEDEADYYCCSYAGSSIFVIFGGGTKVTVLG
# Columns and labels:
# LUAD-0061AS3 cells = experiment: Caspase 3/7 enzymatic activity in cell homogenates (apoptosis); assay type: cell-based, human
# Method: (§1) MCF-7 cells were treated with the indicated concentrations of NRG1-b1 for 10 minutes, and then cell extracts were prepared and subjected to Western blotting for the indicated phosphorylated (p) or total (t) proteins (FIG. 2A). […] Data were analyzed by nonlinear regression using GraphPad Prism 8. There were four replicates of each condition and data represent the mean±SD. […] Cells were counted on the days indicated on the graph. Results represent the mean±SD of duplicates of each condition in one representative experiment. MDA-MB-175-VII (FIG. 2D) and LUAD-0061AS3 (FIG. 2E) cells were treated with the indicated concentrations of inhibitors for 48 hours, and then caspase 3/7 enzymatic activity was measured in cell homogenates. Carfilzomib (20S proteasome inhibitor) was used as a positive control for apoptosis. Results are the mean±SEM of three independent experiments in which each condition was assayed in three replicate determinations. The absence of an error bar for any data point indicates an error value too small to be represented on the scale used.
# (§2) As a positive control for activation of caspase 3/7, 1 μmol/L carfilzomib was used.
# MDA-MB-175-VII cells = experiment: as above; assay type: cell-based, human
# Method: as §1, §2
# OV-10-0050 PDX tumors = experiment: HGSOC ovarian PDX model efficacy (CLU-NRG1); assay type: in vivo, mice; set-up: average tumor volume at the time of the last treatment: unit not given beside the values; conditions: afatinib 5 mg/kg once daily, day 27
# Text: IHC characterization of the OV-10-0050 PDX model (FIG. 6A). H&E staining, WT1, and TP53 IHC (left to right). […] (FIG. 6B). Treatment was terminated on day 27 and animals were monitored for tumor regrowth until tumors reached maximum allowable size or until 90 days after treatment initiation. Results represent the mean tumor volume ±SEM. A zoom-in view on tumor volumes during the last 40 days of monitoring of seribantumab-treated groups (right). […] Change in the volume of individual tumors (day 27 vs. volume at start of treatment) (FIG. 6C).
# Crushed PDX tumor samples were mixed with Matrigel (50%) and injected into the subcutaneous flank of 6-week-old female NSG (LUAD-0061AS3) or Balb/c nude (OV-10-0050) mice. When tumors reached approximately 100-150 mm3, mice were randomly assigned to groups of 5-8 and treatment was commenced. There were 2 mice per group with bilateral flank tumors for the protein phosphorylation/expression study in the LUAD-0061AS3 PDX model. Drugs were administered once, and then tumors were collected at 2, 24, and 168 hours posttreatment. Afatinib was administered by oral gavage once daily as a suspension (in 0.5% methylcellulose-0.4% Tween-80) on a 5-days-on and 2-days-off schedule. […] Mice were observed daily throughout the treatment period for signs of morbidity and mortality. Tumor length and width and animal weights were measured twice weekly. Tumor volume was calculated using the empirical formula V=length×width 2×0.52. The percentage change in tumor volume of each tumor was calculated using the formula [(V2−V1)/V1)]×100, where V1 is the starting tumor volume and V2 is the final tumor volume.
# RT-PCR confirmed the presence of the CLU-NRG1 fusion. Xenograft tissue morphology and IHC markers (positive for WT1 and strong nuclear staining for TP53) were consistent with HGSOC histology (FIG. 6A; Kobel M, et al., Int. J. Gynecol. Pathol. 2016; 35:430-41). […] As with the above experiments in the NSCLC PDX model, the doses of seribantumab used here were lower than the dose that is used in patients. Treatment was terminated at day 27 and tumor growth was monitored for an additional 63 days (90 days after initiation of treatment or once tumors reached the maximum allowable size). The tumor volume as a function of time is illustrated in FIG. 6B, and the AUC was computed for each group to compare tumor volumes between groups at the last date of treatment. […] Forty-one days after treatment began, mice bearing vehicle- and afatinib-treated tumors were sacrificed because of the high tumor burden.
# human ERBB3 (HER3) = human ERBB3 (HER3) (human, UniProt P21860 20-1342); experiment: cell-based or functional assay
# [1] = 1 μmol/L carfilzomib, positive control
# Sequence of human ERBB3 (HER3) (P21860 other isoform, or with tags, fused parts or gaps): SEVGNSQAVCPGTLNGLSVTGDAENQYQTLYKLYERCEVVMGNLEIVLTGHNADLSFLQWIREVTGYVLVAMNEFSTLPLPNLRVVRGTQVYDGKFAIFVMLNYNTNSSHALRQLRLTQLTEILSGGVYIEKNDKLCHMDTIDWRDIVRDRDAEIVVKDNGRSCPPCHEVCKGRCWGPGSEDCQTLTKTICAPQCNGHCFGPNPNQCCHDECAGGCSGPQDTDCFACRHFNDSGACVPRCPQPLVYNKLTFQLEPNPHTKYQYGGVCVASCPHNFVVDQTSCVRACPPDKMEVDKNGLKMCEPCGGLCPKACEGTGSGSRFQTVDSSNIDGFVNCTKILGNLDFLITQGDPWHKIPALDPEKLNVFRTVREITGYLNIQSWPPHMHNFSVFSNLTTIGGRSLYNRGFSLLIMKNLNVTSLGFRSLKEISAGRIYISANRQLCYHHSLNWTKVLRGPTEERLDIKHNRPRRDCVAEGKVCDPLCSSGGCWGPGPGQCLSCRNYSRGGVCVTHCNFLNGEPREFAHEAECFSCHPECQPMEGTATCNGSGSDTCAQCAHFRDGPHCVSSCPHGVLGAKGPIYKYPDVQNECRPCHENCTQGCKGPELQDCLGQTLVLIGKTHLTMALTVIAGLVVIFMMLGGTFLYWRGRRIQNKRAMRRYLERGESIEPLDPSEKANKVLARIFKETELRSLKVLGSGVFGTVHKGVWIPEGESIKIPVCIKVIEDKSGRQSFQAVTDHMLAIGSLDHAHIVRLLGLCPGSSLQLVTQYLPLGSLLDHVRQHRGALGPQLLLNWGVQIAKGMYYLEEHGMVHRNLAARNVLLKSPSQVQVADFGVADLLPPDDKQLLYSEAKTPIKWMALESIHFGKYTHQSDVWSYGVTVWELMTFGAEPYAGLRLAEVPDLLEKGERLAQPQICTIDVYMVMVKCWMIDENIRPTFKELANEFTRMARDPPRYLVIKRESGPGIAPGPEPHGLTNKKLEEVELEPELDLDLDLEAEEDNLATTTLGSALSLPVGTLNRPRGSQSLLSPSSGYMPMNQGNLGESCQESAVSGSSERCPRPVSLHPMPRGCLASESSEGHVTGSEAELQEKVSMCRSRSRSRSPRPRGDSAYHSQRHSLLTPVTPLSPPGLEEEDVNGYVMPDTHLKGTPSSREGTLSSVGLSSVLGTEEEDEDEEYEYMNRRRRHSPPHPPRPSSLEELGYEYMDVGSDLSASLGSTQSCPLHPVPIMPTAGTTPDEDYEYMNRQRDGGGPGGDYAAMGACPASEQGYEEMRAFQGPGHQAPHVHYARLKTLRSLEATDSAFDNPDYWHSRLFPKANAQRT
molecule,measurement,setting,value
CN(C)C/C=C/C(=O)Nc1cc2c(Nc3ccc(F)c(Cl)c3)ncnc2cc1O[C@H]1CCOC1 [afatinib],caspase 3/7 activity,"LUAD-0061AS3 cells; highest concentration used, 48 hours",3.3±0.1 fold above control
same,caspase 3/7 activity,"MDA-MB-175-VII cells; 10 μmol/L, 48 hours",14.1±3.6 fold above control
same,average tumor volume at the time of the last treatment,OV-10-0050 PDX tumors,786.4±190.5
CC(C)C[C@H](NC(=O)[C@H](CCc1ccccc1)NC(=O)CN1CCOCC1)C(=O)N[C@@H](Cc1ccccc1)C(=O)N[C@@H](CC(C)C)C(=O)[C@@]1(C)CO1 [carfilzomib],caspase 3/7 activity,LUAD-0061AS3 cells; [1],5.8±1.3 fold above control
same,caspase 3/7 activity,MDA-MB-175-VII cells; [1],16.6±1.9 fold above control
B1,"IC50 for growth inhibition, HBECp53 cells (nontumor, no NRG1 fusion, control), 96 h, AlamarBlue viability",human ERBB3 (HER3),203 µM
same,"IC50 for growth inhibition, LUAD-0061AS3 cells (SLC3A2-NRG1 fusion), 96 h, AlamarBlue viability",human ERBB3 (HER3),1.4 µM
same,"IC50 for growth inhibition, MCF-7 cells (no NRG1 fusion, control), 96 h, AlamarBlue viability",human ERBB3 (HER3),45.2 µM
same,"IC50 for growth inhibition, MDA-MB-175-VII cells (DOC4-NRG1 fusion), 96 h, AlamarBlue viability",human ERBB3 (HER3),0.02 µM
same,"caspase 3/7 activity, LUAD-0061AS3 cells, highest concentration used, 48 h",human ERBB3 (HER3),4 fold above control
same,"caspase 3/7 activity, MDA-MB-175-VII cells, 10 µmol/L, 48 h",human ERBB3 (HER3),12.7 fold above control
